Results published in paper PMC11182772, “A non-canonical role of the inner kinetochore in regulating sister-chromatid cohesion at centromeres” (The EMBO Journal, 2024).

T1: GST-Scc1 (281–420)-SA2 (80–1060) sub-complex (UniProt O60216 281-420; Q8N3U4 80-1060)
T1 sequence (looked up) 1: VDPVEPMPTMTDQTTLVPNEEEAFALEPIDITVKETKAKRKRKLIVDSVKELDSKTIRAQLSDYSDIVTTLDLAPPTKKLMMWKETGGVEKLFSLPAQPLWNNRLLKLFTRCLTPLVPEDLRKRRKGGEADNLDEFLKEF
T1 sequence (looked up) 2: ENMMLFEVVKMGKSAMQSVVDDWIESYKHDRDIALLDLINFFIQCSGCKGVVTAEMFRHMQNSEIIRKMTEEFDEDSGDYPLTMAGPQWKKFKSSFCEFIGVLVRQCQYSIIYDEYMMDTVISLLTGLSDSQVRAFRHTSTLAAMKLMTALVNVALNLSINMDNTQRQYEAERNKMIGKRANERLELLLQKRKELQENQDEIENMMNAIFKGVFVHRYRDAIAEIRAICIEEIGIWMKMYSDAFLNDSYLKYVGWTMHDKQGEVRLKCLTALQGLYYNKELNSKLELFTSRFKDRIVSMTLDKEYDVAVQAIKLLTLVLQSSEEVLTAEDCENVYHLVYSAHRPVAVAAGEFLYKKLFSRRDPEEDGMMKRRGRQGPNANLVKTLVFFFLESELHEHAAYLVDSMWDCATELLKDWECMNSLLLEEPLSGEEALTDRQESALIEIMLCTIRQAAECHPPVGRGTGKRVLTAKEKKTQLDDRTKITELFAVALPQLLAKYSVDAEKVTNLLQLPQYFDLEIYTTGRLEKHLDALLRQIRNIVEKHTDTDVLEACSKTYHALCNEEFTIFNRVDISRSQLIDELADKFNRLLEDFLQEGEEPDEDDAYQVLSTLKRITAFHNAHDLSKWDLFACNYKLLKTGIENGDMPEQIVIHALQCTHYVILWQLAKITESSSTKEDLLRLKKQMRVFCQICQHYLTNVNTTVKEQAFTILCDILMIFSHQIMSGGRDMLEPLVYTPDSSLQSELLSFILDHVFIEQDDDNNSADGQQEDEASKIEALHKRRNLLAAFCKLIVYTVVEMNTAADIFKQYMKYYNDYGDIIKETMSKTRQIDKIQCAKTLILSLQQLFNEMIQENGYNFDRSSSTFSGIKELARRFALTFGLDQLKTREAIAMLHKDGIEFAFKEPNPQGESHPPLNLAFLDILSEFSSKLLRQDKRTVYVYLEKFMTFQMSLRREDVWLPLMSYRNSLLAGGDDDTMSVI


Tests used:
[1] = target: T1, GST-Scc1 (281–420)-SA2 (80–1060) …; experiment: pull-down; MBP fusion protein as bait, eluted GST-Scc1 (281–420)-SA2 (80–1060) as prey; binding 2 h, three washes of 5 min in P150 buffer; immunoblot for GST; settings: both partners purified
[2] = target: T1, GST-Scc1 (281–420)-SA2 (80–1060) …; experiment: pull-down; GST-Scc1 (281–420)-SA2 (80–1060) as bait, purified recombinant MBP fusion proteins as prey; immunoblot for MBP; settings: both partners purified

binding result [1]	binding result [2]	Binder
binds		MBP-CENP-U (1–200) (domain or fragment, human, UniProt Q71F23 1-200, looked up, human CENP-U, residues 1–200; vector pMal-C2E; also called MBP-fused CENP-U (1–200); source: E. coli BL21 (DE3), purified (amylose resin)) MAPRGRRRPRPHRSEGARRSKNTLERTHSMKDKAGQKCKPIDVFDFPDNSDVSSIGRLGENEKDEETYETFDPPLHSTAIYADEEEFSKHCGLSLSSTPPGKEAKRSSDTSGNEASEIESVKISAKKPGRKLRPISDDSESIEESDTRRKVKSAEKISTQRHEVIRTTASSELSEKPAESVTSKKTGPLSAQPSVEKENL
	binds	MBP-Wapl (1–630) (domain or fragment, human, UniProt Q7Z5K2 1-630, looked up, human Wapl, residues 1–630, with all three FGF motifs; vector pMal-C2E; also called MBP-fused Wapl (1–630); source: E. coli BL21 (DE3), purified (amylose resin; on resin or eluted)) MTSRFGKTYSRKGGNGSSKFDEVFSNKRTTLSTKWGETTFMAKLGQKRPNFKPDIQEIPKKPKVEEESTGDPFGFDSDDESLPVSSKNLAQVKCSSYSESSEAAQLEEVTSVLEANSKISHVVVEDTVVSDKCFPLEDTLLGKEKSTNRIVEDDASISSCNKLITSDKVENFHEEHEKNSHHIHKNADDSTKKPNAETTVASEIKETNDTWNSQFGKRPESPSEISPIKGSVRTGLFEWDNDFEDIRSEDCILSLDSDPLLEMKDDDFKNRLENLNEAIEEDIVQSVLRPTNCRTYCRANKTKSSQGASNFDKLMDGTSQALAKANSESSKDGLNQAKKGGVSCGTSFRGTVGRTRDYTVLHPSCLSVCNVTIQDTMERSMDEFTASTPADLGEAGRLRKKADIATSKTTTRFRPSNTKSKKDVKLEFFGFEDHETGGDEGGSGSSNYKIKYFGFDDLSESEDDEDDDCQVERKTSKKRTKTAPSPSLQPPPESNDNSQDSQSGTNNAENLDFTEDLPGVPESVKKPINKQGDKSKENTRKIFSGPKRSPTKAVYNARHWNHPDSEELPGPPVVKPQSVTVRLSSKEPNQKDDGVFKAPAPPSKVIKTVTIPTQPYQDIVTALKCRREDK
	binds	MBP-Sgo1 (230–400) (domain or fragment, human, UniProt Q5FBB7 230-400, looked up, human Sgo1, residues 230–400; vector pMal-C2E; also called recombinant MBP-Sgo1 (230–400); source: E. coli BL21 (DE3), purified (amylose resin)) DPLVNMHIPENVQHNACQWSKDQVNLSPKLIQPGTFTKTKEDILESKSEQTKSKQRDTQERKREEKRKANRRKSKRMSKYKENKSENKKTVPQKKMHKSVSSNDAYNFNLEEGVHLTPFRQKVSNDSNREENNESEVSLCESSGSGDDSDDLYLPTCKYIQNPTSNSDRPV
